From the supplement of paper PMC10567573

B1: ESR2 (parent)
chain: KSCQACRLRKCYEVGMVKCGSRRE
B2: FAM189A2 (parent)
chain: PRCDLVDLGEGKICFCCEEFQPAK

Variants of: B1
Assay: protein stability index of a GFP-peptide fusion (GPS, HEK-293T) (PSI 1-6); higher = more stable
Conditions: c terminus: a fixed tail appended
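Also: lentivirally expressed fusions sorted by FACS into six bins by GFP to DsRed ratio, PSI derived from sequencing read proportions per bin multiplied by bin number.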

Row | Variant | protein stability index
1 | KSQQACRLRKCYEVGMVKCGSRRE [C3Q] | 2.94
2 | KSWQACRLRKCYEVGMVKCGSRRE [C3W] | 1.85
3 | KSMQACRLRKCYEVGMVKCGSRRE [C3M] | 2.48
4 | KSSQACRLRKCYEVGMVKCGSRRE [C3S] | 3.24
5 | KSHQACRLRKCYEVGMVKCGSRRE [C3H] | 2.65
6 | KSGQACRLRKCYEVGMVKCGSRRE [C3G] | 2.97
7 | KSNQACRLRKCYEVGMVKCGSRRE [C3N] | 2.71
8 | KSIQACRLRKCYEVGMVKCGSRRE [C3I] | 2.39
9 | KSTQACRLRKCYEVGMVKCGSRRE [C3T] | 2.57

Variants of: B2
Assay: as above
Conditions: c terminus: a fixed tail appended

Row | Variant | protein stability index
10 | PRCDLVDLGEGKICFCCEEFQPNK [A23N] | 3.15
11 | PRCDLVDLGEGKICFCCEEFQPSK [A23S] | 2.66
12 | PRCDLVDLGEGKICFCCEEFQPQK [A23Q] | 3.5
13 | PRCDLVDLGEGKICFCCEEFQPHK [A23H] | 3.07
14 | PRCDLVDLGEGKICFCCEEFQPMK [A23M] | 1.96
15 | PRCDLVDLGEGKICFCCEEFQPWK [A23W] | 3.56
16 | PRCDLVDLGEGKICFCCEEFQPTK [A23T] | 2.79
17 | PRCDLVDLGEGKICFCCEEFQPVK [A23V] | 3.29
18 | PRCDLVDLGEGKICFCCEEFQPFK [A23F] | 2.85
19 | PRCDLVDLGEGKICFCCEEFQPRK [A23R] | 2.24
20 | PRCDLVDLGEGKICFCCEEFQPEK [A23E] | 4.35
21 | PRCDLVDLGEGKICFCCEEFQPCK [A23C] | 3.98
22 | PRCDLVDLGEGKICFCCEEFQPGK [A23G] | 2.72
23 | PRCDLVDLGEGKICFCCEEFQPPK [A23P] | 2.44
24 | PRCDLVDLGEGKICFCCEEFQPKK [A23K] | 3.36
25 | PRCDLVDLGEGKICFCCEEFQPLK [A23L] | 3.1
26 | PRCDLVDLGEGKICFCCEEFQPYK [A23Y] | 2.28
27 | PRCDLVDLGEGKICFCCEEFQPDK [A23D] | 3.12
28 | PRCDLVDLGEGKICFCCEEFQPIK [A23I] | 2.65
29 | PRCDLVDLGEGKICFCCEEFQPAH [K24H] | 2.52
30 | PRCDLVDLGEGKICFCCEEFQPAS [K24S] | 2.72
31 | PRCDLVDLGEGKICFCCEEFQPAD [K24D] | 3.18

Row | Variant | protein stability index
32 | PRCDLVDLGEGKICFCCEEFQPAT [K24T] | 3
33 | PRCDLVDLGEGKICFCCEEFQPAW [K24W] | 1.99
34 | PRCDLVDLGEGKICFCCEEFQPAN [K24N] | 3.37
35 | PRCDLVDLGEGKICFCCEEFQPAV [K24V] | 3.06
36 | PRCDLVDLGEGKICFCCEEFQPAL [K24L] | 3.26
37 | PRCDLVDLGEGKICFCCEEFQPAE [K24E] | 3.81
38 | PRCDLVDLGEGKICFCCEEFQPAR [K24R] | 2.89
39 | PRCDLVDLGEGKICFCCEEFQPAI [K24I] | 2.48
40 | PRCDLVDLGEGKICFCCEEFQPAY [K24Y] | 2.52
41 | PRCDLVDLGEGKICFCCEEFQPAM [K24M] | 2.32
42 | PRCDLVDLGEGKICFCCEEFQPAQ [K24Q] | 2.25
43 | PRCDLVDLGEGKICFCCEEFQPAF [K24F] | 2.23
44 | PRCDLVDLGEGKICFCCEEFQPAG [K24G] | 3.1
45 | PRCDLVDLGEGKICFCCEEFQPAA [K24A] | 2.66
46 | PRCDLVDLGEGKICFCCEEFQPAC [K24C] | 3.39
47 | PRCDLVDLGEGKICFCCEEFQPAP [K24P] | 3.05
48 | PRCDLVDLGEGKICFCCEEFHPAK [Q21H] | 3.1
49 | PRCDLVDLGEGKICFCCEEFIPAK [Q21I] | 2.68
50 | PRCDLVDLGEGKICFCCEEFWPAK [Q21W] | 2.48
51 | PRCDLVDLGEGKICFCCEEFDPAK [Q21D] | 3.61
52 | PRCDLVDLGEGKICFCCEEFKPAK [Q21K] | 2.79
53 | PRCDLVDLGEGKICFCCEEFEPAK [Q21E] | 3.87

Row | Variant | protein stability index
54 | PRCDLVDLGEGKICFCCEEFFPAK [Q21F] | 2.24
55 | PRCDLVDLGEGKICFCCEEFSPAK [Q21S] | 2.65
56 | PRCDLVDLGEGKICFCCEEFNPAK [Q21N] | 3.14
57 | PRCDLVDLGEGKICFCCEEFGPAK [Q21G] | 3.07
58 | PRCDLVDLGEGKICFCCEEFRPAK [Q21R] | 2.44
59 | PRCDLVDLGEGKICFCCEEFYPAK [Q21Y] | 2.33
60 | PRCDLVDLGEGKICFCCEEFVPAK [Q21V] | 2.66
61 | PRCDLVDLGEGKICFCCEEFAPAK [Q21A] | 3.44
62 | PRCDLVDLGEGKICFCCEEFMPAK [Q21M] | 2.24
63 | PRCDLVDLGEGKICFCCEEFTPAK [Q21T] | 3.55
64 | PRCDLVDLGEGKICFCCEEFPPAK [Q21P] | 2.86
65 | PRCDLVDLGEGKICFCCEEFLPAK [Q21L] | 2.65
66 | PRCDLVDLGEGKICFCCEEFCPAK [Q21C] | 4.17
67 | PRCDLVDLGEGKICFCCEEPQPAK [F20P] | 4
68 | PRCDLVDLGEGKICFCCEEYQPAK [F20Y] | 3.1
69 | PRCDLVDLGEGKICFCCEEWQPAK [F20W] | 2.4
70 | PRCDLVDLGEGKICFCCEETQPAK [F20T] | 3.97
71 | PRCDLVDLGEGKICFCCEEVQPAK [F20V] | 3.75
72 | PRCDLVDLGEGKICFCCEEMQPAK [F20M] | 3.16
73 | PRCDLVDLGEGKICFCCEENQPAK [F20N] | 3.86
74 | PRCDLVDLGEGKICFCCEESQPAK [F20S] | 3.89
75 | PRCDLVDLGEGKICFCCEERQPAK [F20R] | 4.13

Row | Variant | protein stability index
76 | PRCDLVDLGEGKICFCCEEQQPAK [F20Q] | 2.59
77 | PRCDLVDLGEGKICFCCEEFQFAK [P22F] | 3.12
78 | PRCDLVDLGEGKICFCCEEFQRAK [P22R] | 2.51
79 | PRCDLVDLGEGKICFCCEEFQTAK [P22T] | 3.23
80 | PRCDLVDLGEGKICFCCEEFQQAK [P22Q] | 3.51
81 | PRCDLVDLGEGKICFCCEEFQAAK [P22A] | 3.31
82 | PRCDLVDLGEGKICFCCEEFQVAK [P22V] | 2.69
83 | PRCDLVDLGEGKICFCCEEFQHAK [P22H] | 3.13
84 | PRCDLVDLGEGKICFCCEEFQWAK [P22W] | 3.08
85 | PRCDLVDLGEGKICFCCEEFQKAK [P22K] | 3.42
86 | PRCDLVDLGEGKICFCCEEFQGAK [P22G] | 3.86
87 | PRCDLVDLGEGKICFCCEEFQNAK [P22N] | 3.28
88 | PRCDLVDLGEGKICFCCEEFQMAK [P22M] | 3.07
89 | PRCDLVDLGEGKICFCCEEFQEAK [P22E] | 3.49
90 | PRCDLVDLGEGKICFCCEEFQYAK [P22Y] | 3.06
91 | PRCDLVDLGEGKICFCCEEFQLAK [P22L] | 2.74
92 | PRCDLVDLGEGKICFCCEEFQCAK [P22C] | 3.51
93 | PRCDLVDLGEGKICFCCEEFQDAK [P22D] | 4.31
94 | PRCDLVDLGEGKICFCCEEFQIAK [P22I] | 2.75
